Assay results published in publication PMC9728169, “Enzymatic Biotransformation of Ginsenoside Rb2 into Rd by Recombinant α-L-Arabinopyranosidase from Blastococcus saxobsidens” (Journal of Microbiology and Biotechnology, 2019).

Substrate: [H][C@@]1(O[C@@H]2[C@@H](O)[C@H](O)[C@@H](CO)O[C@@]2([H])O[C@H]2CC[C@]3(C)[C@@]4([H])C[C@@H](O)[C@]5([H])[C@@]([H])([C@](C)(CCC=C(C)C)O[C@@H]6O[C@H](CO[C@@H]7OC[C@H](O)[C@H](O)[C@H]7O)[C@@H](O)[C@H](O)[C@H]6O)CC[C@@]5(C)[C@]4(C)CC[C@@]3([H])C2(C)C)O[C@H](CO)[C@@H](O)[C@H](O)[C@H]1O
Assay: hydrolysis of arabinopyranose moiety of Rb2 (kinetic read-out not detailed)
Assay type: biochemical, Blastococcus saxobsidens
Details: enzyme 10 μg/ml; substrate range 0.1 mM to 5 mM as printed (unit μM doubtful); pH and temperature not stated for this constant; unit of the source corrected

B1: AbpBs (α-L-arabinopyranosidase) (Blastococcus saxobsidens) (protein)
chain: MRRIPFNRGWETRAHANFFAEMHGAAAPWQPVTLPHDAALGRTRDAANGAGSGYVPGGVYEYRTTLAAPAEYRDRRVLLEFEGVYRTAMVYVNGSLAGSWATGYTGFVVDLDDHLRYGGDNEIRVVCRAHQDSRWYSGAGIHRPVHLVVGPLTHLALDGVRVTTTEVDAEFAVVEVATTVEHDGRGLRTLELVTEVRDGEGSAVATATSPVTVLPGEPAVVRQRLLLPTPALWGPDSPSLYTAAVVLRDGGTDVDDDAVSFGVRTLSLDPERGLRINGEPIKLRGACVHSDNGVLGAATIGRAEERRVQLLKEAGFNALRSAHNPMSRAMLDACDRYGVLVMDELTDVWTESKTDFDAALDFPQWWERDVEAMVAKDVNHPSVVFYSIGNEIPEVAKPHGAVWSRRLAEKVRALDGTRFVTNGINAMLAVIGEAKAAEEQAGINTMLTDMGAFMDELSASELVATRTAEAYDVLDAAGMNYMEARYQLDRTLFPRRVIVGAETFAGKIDRLWRLVLDHPHVIGDFTWTGWDYLGEAGVGRVAAADDPTAGQFGAPYPWLLAHVGDIDITGHRRPASYYREIVFGRRRDPYIAVLRPERHGRELSATPWAWSDTVGSWSWAGAEEKPVTVEVYSDADEVELLLDGTSLGTAKAGEANRFRAAFEVTYAPGELTAVSRTGGQETGRCSLRSATGPLALAAAADRPVVRADDTDLAHVTLTLEDADGVVALGVDREVTVTVEGPGVLQGFGSAAPATEESYLDDVHTTFDGRALAVVRPTGAGTITLTATAPGCPPVSLGIEAR
notes: pGEX-4T-1 N-terminal GST fusion in E. coli BL21 (DE3), GST removed by thrombin (purified enzyme); primer-encoded N-terminus MRRIPF
- Km: 920 µM
